40 sequences from the nanobody polyreactivity screen of Harvey et al. (2022) can be followed below.

A short description of this series: yeast display, Sf9 membrane polyspecificity reagent, FACS + sequencing; frameworks hold sequencing errors. In a few lines: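 In a synthetic yeast display library (Saccharomyces cerevisiae BJ5465), nanobody expression was induced with galactose for 36–48 hours. FACS gates were set low and high (top ~1%) using anti-HA fluorescence for expression and streptavidin fluorescence for binding of the Sf9 membrane reagent. Each polyreactivity label is drawn from the gate of origin.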
On to “QVQLVESGGGLVQAGGSLRLSCAASGFTFRSNAMGWYRQAPGKERELVAAISYSGGDTYYADSVKGRFTISRDNAKNTVFLQMNSLKPEDTAVYYCAADDPASPLGEYWGQGTQVTVSS”, for which the “polyreactivity (PSR sort gate)” value is on record as “low polyreactivity”.

For the sequence “QVQLVESGGGLVQAGGSLRLSCAASGRIFAYNAMGWYRQAPGKERELVAAISSSDDDTYYADSVKGRFTISRDNAKNTVYLQMNSLKPEDTAAYYCAAEWDTDRLWAGPRGSLYDYWGQGTQVTVSS”, the “polyreactivity (PSR sort gate)” value was “high polyreactivity”.

As for “QVQLVESGGGLVQAGGSLRLSCAASGFIFSRYVMGWYRQAPGKERELVAAISGSGGRTYYADSVKGRFTISRDKAKNTVYLQMNSLKPEDTAVYYCAARFLSPYHYYYWGQGTQVTVSS”, the “polyreactivity (PSR sort gate)” value is given as “high polyreactivity”.

As to “QVQLVESGGGLVQAGGSLRIICAASGRTFSYYAMGWYRQAPGKERELVAVITSSGGSTSYADSVKGRFTISRDNAKNTVYLQMKSLKPEDTAVYYCAADPLAVSWAYYLFGVDYWGHGTQVTVSS”, the “polyreactivity (PSR sort gate)” value was “high polyreactivity”.

As to “QVQLVESGGGLVQSGGSLRLSCCACGRIFYSYSMGRYRQAPGKDRELVAANTCRGGSTYYADSVKGRFTISRDNAKNPVYLQMIRLKPEDTAVSYCATSSHTPYYSYIVERIHYDYWGQGTQVTVSS”, the “polyreactivity (PSR sort gate)” value is recorded as “high polyreactivity”.

Regarding “QVQLVESGGGLFQAGGSLRLSCAASGRIFKYAMGWYRQAPGKERELVAAISSSGGRTYYADSVKGRFTISRDNAKNTVYLQMNSLKPEDTAVYYCAATSYNTQSAFYYWGQGTQVTVSS”, the “polyreactivity (PSR sort gate)” value is given as “high polyreactivity”.

As to “QVQLVESGGGLVQAGGSLRLSCAASGSTFSYYAMGWYRQAPGKERELVAAITSGGRTKYADSVKGRFTISRDNAKNTVYLQMNSLKPEDTAVYYCAKRIEKFSGSLAGRWYDYWGQGTQVTVSS”, the “polyreactivity (PSR sort gate)” value is “high polyreactivity”.

Turning to “QVQLVESGGGLVQAGGSLRLSCAAYGFISPSYAMGWYRQAPGKERELVAAIRSSDGSTYYADSVKGRFTISRDNAKNTVYLQMNSLKPEDTAVYYCAARRVTSPFGSDSWGQGTQVTVSS”, the “polyreactivity (PSR sort gate)” value was “low polyreactivity”.

For “QVQLVESGGGLVQAGGSLRLSSADSGRIFRGYAMRLYRQAAGKVREFVAAISWGGGSKYYADSEKGRFTISRDNPKNTVYLQMNSLTPEDSAVYYCAAGSPYAYNYWGQGPQVTVSS”, the “polyreactivity (PSR sort gate)” value is reported as “high polyreactivity”.

For “QVQLQDSGGGLVQAGGSLRLSCAASGTIFWYSDLGWYRQAPGKERKFVAGIGFGSNSNFADSVRGRFTISRDNAKNTVYLQMNSLKPEDTAVYYCAAVWFDYSTHRYWGQGTQVTVSS”, the “polyreactivity (PSR sort gate)” value is given as “high polyreactivity”.

“QVQIVESGGGLVQAGGSLRLSCAASGSTFQYYAMGWYRQAPGKERELVAGITWRDGNTYYADSVKGRFTISRDNAKNSVYLQMNSLKPEDTAVYYCAARRYFVIYFPYDYWGQGTQVTVSS”: the “polyreactivity (PSR sort gate)” value is recorded as “low polyreactivity”.

In the case of “QVQHVESGGGLVQAGGSLRLRCAASGSIFVHNDMGWYRQAPGKERDLVAAISSGSSTNYADSVKGRFTISRDNAKNTVFLQMNSLKPEDTAVYYCAVTSPYSHGYSYWGADSRDYWGQGTQVTVSS”, the “polyreactivity (PSR sort gate)” value is “low polyreactivity”.

Consider “QDQLVESGGGLVQAGGSLRLSCAASGRTFVFYAMGWYRQAPGKERELVAAITSGTSTNYADSVKGRFTISRDNAMNTVYLQMNSLKPEDTAVYYCAAYWTDLTYSIGFGYWGQGTQVTVSS”, for which the “polyreactivity (PSR sort gate)” value was “low polyreactivity”.

Take “QVHLVESGGGLVQAGGSLRLSCAASGSTFVRNVMGWYRQAPGKERELVAAITRSGDTTYYADSVKGRFTISRDNAKNTVYLQMNSLKPEDTAVYHCAKRTFVRRGSIYPIDDYWGQGTQVTVSS”: the “polyreactivity (PSR sort gate)” value was “low polyreactivity”.

With “QVQLEESGGGLVQAGGSLRLSCAASGSICYYYARGWYRQAPGKERELVASITSGGRTYYADSVKGRFTISRDNAKNTVYLQMNSLKPEDTAVYYCAAQRIWLGDYWGQGTQVTVSS”, the “polyreactivity (PSR sort gate)” value is listed as “high polyreactivity”.

With “QVQLVESGGGLVQAGGSLRLSCAASGRIFYNSVMGWYRQAPGKERELVAAISSSGGSTYYADSVKGRFTISRDNAKNTVYLQMNSLKPEDTAVYYCATTRRVPGEYWGQGTQVTVSS”, the “polyreactivity (PSR sort gate)” value is listed as “high polyreactivity”.

As for “QVQLVESGGGLVQAGGSLRLSCAASGSTFKVYAMGWYRQAPGKEMELDAAISRSGGRTYYADSVKGRFTISRDNAKNTVYLQMNSLKPEDTAVYYCNRDYTYSQGHYSGSYDYWGQGTQVTVSS”, the “polyreactivity (PSR sort gate)” value was “high polyreactivity”.

For the sequence “QVQLVESGGGLVQAGGSLRLSCAASGSIFVTYAMGWYRQAPGKERELVASISWRGVSTRYADSVKGRFTISRDNAKNTVYLQMNSLKPEDTAVDYCAAVYRRTRSGIFDYWGQGTQVTVSS”, the “polyreactivity (PSR sort gate)” value is reported as “high polyreactivity”.

For “QVQLVESGGGLVQAGGSLRLSCAASGFIYNTKGWYRQAPGKERELVAAISRSGGSTDYADSVKGRFTISRDNAKNTVYLQMTSLKPEDTAVYYCAARRPYRDGYDYWGQGTQVTVSS”, the “polyreactivity (PSR sort gate)” value is “high polyreactivity”.

“QVQLVESGGGLVQAGGSLRLSCAASGSIFPYYAMGWYIQAPGKERELVAVITTSGGRTYYADSVKGRFTISRDNAKNTVYLQMNSLKPEDTAVYYCATDVRQGSGWRYYYWGQGTQVTVSS”: the “polyreactivity (PSR sort gate)” value is “high polyreactivity”.

As for “QVHLVDSGVGLVQAGGSLRLSCAASGYTFVPYAMGWYRQAPGKERELVAAISSSGGSTYYADAVKGRFTISRDNAKNTVYLQMNSRKPEDSAVYYWAADYRTGQFYAGFDYWGQGTQVTVSS”, the “polyreactivity (PSR sort gate)” value was “high polyreactivity”.

“QVQLVESGGGLVQAGGSLRLSCAASGRTFPPYAMGWYRQAPGKERELVAAISSDGSTYADSVKGRFTISRDNAKNTVYLQMNSLKPEDTAVYYCAVDYTYSYRKHFGHILYSWGQGTQVTVSS”: the “polyreactivity (PSR sort gate)” value was “low polyreactivity”.

“QVQLVESGGGLVQAGGSLRLSCAASGSIFPANAMGWYRQAPGKERELVAGISERGSSTYYADSVKGRFTISRDNAKNTDYLQMNSLKPEDTAVYYCAADDVGRYWSYTHNWARGDYWGQGTQVTVSS”: the “polyreactivity (PSR sort gate)” value was “low polyreactivity”.

Take “QVQLVESGGGLVQAGGSLRLSCAASGLIFYRYAMGWYRQAPGKERELVAAISARGSSTYYADSVKGRFTISRDNAKNTVYLQMNSLKPEDTAVYYCAAGATGTSYYGGDYWGQGTQVTVSS”: the “polyreactivity (PSR sort gate)” value is given as “high polyreactivity”.

Regarding “QVQLVESGGGLVQAGGSLRLSCAASGSTFVPNAMGGSRPAPGKERELVAAISYSGGTTYYADSVKGRFTISRDNAKNTVYLQMNSLKPEDTAVYYCAARSKGAAAILDDYWGQGTQVTVSS”, the “polyreactivity (PSR sort gate)” value was “low polyreactivity”.

Consider “QVQLVESGGGLVQAGGSLRLSCAASGSIFTNNAMGWYRQAPGKERELVAGINISGDSTYYADSVKGRFTISRDNAKNTVYLQMNSLKPEDTAVYYCAAGDGYAGIYDYWGQGTQVTVSS”, for which the “polyreactivity (PSR sort gate)” value was “low polyreactivity”.

Consider “QVQLVESVGGLVQAGGSLRLSCAASGGTFLFYGMGWYRQAPGKERELVAVITWSGGSTYYADSVKGRFTISRDNAKNTVYLQMKSLKPEDTAVYYCNAANTGSPDYQSIGYNFNYWGQGTQVTVSS”, for which the “polyreactivity (PSR sort gate)” value was “low polyreactivity”.

With “QVQLVESGGGLVQAGGSLRLSCAASGRTFQTNAMGWYRQAPGKERELVAAISWSGGRTYYADSVKGRFTISRDNAKNTVYLQMNSLKPEDTAVYYCAARQWYRYKVRFDYWGQGTLVTVSS”, the “polyreactivity (PSR sort gate)” value is “high polyreactivity”.

On to “QVQLVESGGGLVQAGGRLRLSCAASGLTFEYNAMGWYRQAPGKERELVASISSGGGTNYADSVKGRFTISRDNAKNTVYLQMNSLKPVDTAVYYCATDNYDWSCWAFRGYWYDYWGQGTQVTVSS”, for which the “polyreactivity (PSR sort gate)” value is listed as “low polyreactivity”.

Consider “QVQLVESGGGLVQAGGSLRLSCAASGRTFYGYAMGWYRQAPGKERELVAAISKSGGRTYYADSVKGRFTISRDNAKNTVYLQMNSLKPEDSAVYYCNAPVTGAGTYPPYDSWGQGTQVTVSS”, for which the “polyreactivity (PSR sort gate)” value is recorded as “high polyreactivity”.

For the sequence “QVQLVESGGGLVQAGGSLRLSCAASGRTIWTYVMGWYRQAPGKERELVAAISRSGSSTYYADSVKGRFTISRDNAKNTVYLQMNSLKPEDTAVYYCNKVDGTTLDDHYMDYWGQGTQVTVSS”, the “polyreactivity (PSR sort gate)” value is “low polyreactivity”.

In the case of “QVQLVESGGGLVQAGGSLRLSCAASGSIFDSYAMGWYRQAPGKERELVASISSDGGGTYYADSVKGRFTISRDNAKNTVYLQMNSLKPEDTAVYYCARTRTYNSRTMDYWGQGTQVTVSS”, the “polyreactivity (PSR sort gate)” value was “low polyreactivity”.

On to “QVQLVESAGGLVQAGGSLRLSCAASGSIFSRNAMGWYRPAPGKERELVAAITWSGGSTYYADSVKGRFTISRDNAKNTVYLQMNSLKPEDTAVYYCNAKRSSRIKQLEYDYWGQGTQVTVSS”, for which the “polyreactivity (PSR sort gate)” value is recorded as “high polyreactivity”.

For “QVQLVESGGRIVQAGGSLRLSCAASGSTFYPYAMGWSRPAPGKEGQFVAAITWSGGSTYADSVKGRFTISRDNAKNTVYLQMNSLKPEDTAVYYCAAQPFVIEGGYRGDYWGQGTQETVSS”, the “polyreactivity (PSR sort gate)” value is reported as “low polyreactivity”.

For the sequence “QVQLVESGGGLVQAGGSLRLICAASGLTFADYAMGWYRPAPGKERELVAAISRRGGSTYYADSVKGRFTISRDNAKNTVYLQMNSLKPEDTAVYYCAAYAYDVAFKRYKFDYWGQGTEVTVSS”, the “polyreactivity (PSR sort gate)” value was “high polyreactivity”.

For the sequence “QVQLVESGGGLVQAGGSLRLSCAASGSTFGGYAMGWYRQEPGKERELVAAISSRGARTYYADSVKGRFTISRDNAKKTVYLQMNSLKPEDTAVYYCAARGPLDRYGYWGQGTQVTVSS”, the “polyreactivity (PSR sort gate)” value was “high polyreactivity”.

Consider “QVQLVESGGGLVQAGGSLRLSCAASGRIFYRYAMGWYRQAPGKERELVAGISNSGGSTYYADSVKGRFTISRDNAKNSVYLQRNSLKPEDTAVYYCARLSTKPLPYDYWGQGTQVTVSS”, for which the “polyreactivity (PSR sort gate)” value is recorded as “high polyreactivity”.

With “QVQLVESGAGLVQAGGSLRISCAASASIFAYYVMGRYREAPGKERELVAAITRSGSPYYADSVKGRFTISRDNAKNTVYLQMNSLKPEDTAVYYCAAPTDFLFWEFDYWGQGTQVTVSS”, the “polyreactivity (PSR sort gate)” value is listed as “low polyreactivity”.

Regarding “QVQLVESGGGLVQAGGILRLSCAPSGLILKYYAMGWYRQAPGKEREFVAAITRRGGITYYADSVKGRFTISRDNAKNTVYLQMNSLKPEDTAVYYCAADPKLGSLAYWRYSYPLYDYWGQGTQVTVSS”, the “polyreactivity (PSR sort gate)” value is listed as “low polyreactivity”.

On to “QVQLVESGGGLVQAGGSLRLSCAASGLIFVNDMGLYRQAPGKEREFVAAITYSTGSTYYADSVKGRFTISRDNAKNTVYLQMNSLKPEDTAVYYCAKDRSGHGTERDYWGQGTQVTVSS”, for which the “polyreactivity (PSR sort gate)” value is “low polyreactivity”.
